Assay results taken from patent US12545899B2, “Luciferase enzymes for use with thermostable luciferins in bioluminescent assays” (Promega Corporation, priority 2018, dated 2026).

Legend:
[1] = Differential scanning fluorimetry (DSF) analysis; type: physicochemical; parameters: key to DSF Tm: melting temperature in °C (heated 30-95 °C at 1 °C/min); settings: for DSF Tm (° C.): Table 9B; for DSF Tm: Table 7A
Method: (§1) To conduct the experiment, Sypro Orange (5000×) was diluted in water to 3× and combined with enzymes stored in 50 mM HEPES pH 7.5, 100 mM NaCl, 2 mM EDTA to a final concentration of 5×. Fluorescence was read at 60 second intervals as the reactions were heated at 1° C. per minute from 30-95° C. The change in fluorescence at each minute was calculated and plotted for each temperature in the range.
as §1, with “The luciferase enzyme variants generated were also evaluated using DSF analysis as shown in the representative results provided in Tables 7A and 7B above. To” for “To”, “the experiments,” for “the experiment,”, “in 20” for “in 50”, “7.5, 200” for “7.5, 100”, “NaCl, 1” for “NaCl, 2”

[2] = Brightness of additional luciferase enzyme variants with CS0333; type: biochemical; settings: Table 7A, 1 mM CS0333; for Fold-improvement over ATG3707, CS0333 BG: Bright-Glo buffer; for Fold-improvement over ATG3707, CS0333 DR: Detection Reagent buffer
Method: (§2) Additional luciferase enzyme variants were generated and evaluated for their stability and activity. To evaluate the additional luciferase enzyme variants, 0.005 mg/ml luciferase enzyme variant was mixed with 1 mM ATP+1 mM substrate in either Bright-Glo™ (BG) or Detection Reagent (DR) buffers. […] (Table 7A is colored according to their relative luminescence values within each column across a red to green color spectrum with the lowest values colored red and the highest values colored green.)

[3] = Brightness of additional luciferase enzyme variants with CS0280; type: biochemical; settings: Table 7A, 1 mM CS0280; for Fold-improvement over ATG3707, CS0280 BG: Bright-Glo buffer; for Fold-improvement over ATG3707, CS0280 DR: Detection Reagent buffer
Method: as §2

[4] = Luminescence of ATG-3707 variants (second round epPCR) with CS0333; type: biochemical
Method: Reagent compositions included CS0333 diluted from 20 mM to 2 mM in reaction buffer with 2 mM ATP. […] Reactions were incubated at 25° C. for 3 min, and luminescence was read and then normalized to ATG-3707 activity tested in parallel.

| Molecule | Fold-improvement over ATG3707, CS0333 BG [2] | Fold-improvement over ATG3707, CS0333 DR [2] | Fold-improvement over ATG3707, CS0280 BG [3] | Fold-improvement over ATG3707, CS0280 DR [3] | DSF Tm [1] | further results |
| --- | --- | --- | --- | --- | --- | --- |
| MK0136: SEQ ID NO: 104; H244W+S193A+N228D+L305F+S306P+I109V+C38R+F55I+Y108F+A316W+Y339M (protein) MADKNILYGPEPFYPLEDGTAGEQMFDALSRYAAIPGRIALTNAHTKENVLYEEILKLSCRLAESFKKYGLKQNDTIAVCSENSLQFFLPVIASLYLGIIVAPVNDKFVERELIHSLGIVKPRIVFCSKNTFQKVLNVKSKLKSIETIIILDLNEDLGGYQCLNNFISQNSDSNLDVKKFKPYSFNRDDQVAAIMFSSGTTGLPKGVMLTHKNIVARFSIAKDPTFGDAINPTSAILTVIPFHWGFGMMTTLGYFTCGFRVVLMHTFEEKLFLQSLQDYKVESTLLVPTLMAFLAKSALVEKYDFPHLKEIASGGWPLSKEIGEMVKKRFKLNFVRQGMGLSETTSAILITPKGDAKPGSTGKIVPLHAVKVVDPTTGKILGPNEPGELYFKGPMIMKGYYNNEEATKAIIDNDGWLRSGDIAYYDNDGHFYIVDRLKSLIKYKGYQVAPAEIEGILLQHPYIVDAGVTGIPDEAAGELPAAGVVVQTGKYLNEQIVQDYVASQVSTAKWLRGGVKFLDEIPKGSTGKIDRKVLRQMLEKHTNGHHHHHHHH |  |  |  |  |  | DSF Tm (° C.) [1]: 71 °C |
| MK0138: SEQ ID NO: 106; H244W+S193A+N228D+L305F+S306P+I109V+C38R+F55I+Y108F+A316W+Y339M+T3441+I396K (protein) MADKNILYGPEPFYPLEDGTAGEQMFDALSRYAAIPGRIALTNAHTKENVLYEEILKLSCRLAESFKKYGLKQNDTIAVCSENSLQFFLPVIASLYLGIIVAPVNDKYVERELIHSLGIVQPRIVFCSKNTFQKVLNVKSKLKSIETIIILDLNEDLGGYQCLNNFISQNSDSNLDVKKFKPYSFNRDDQVAAIMFSSGTTGLPKGVMLTHKNIVARFSIAKDPTFGDAINPTSAILTVIPFHWGFGMMTTLGYFTCGFRVVLMHTFEEKLFLQSLQDYKVESTLLVPTLMAFLAKSALVEKYDFPHLKEIASGGWPLSKEIGEMVKKRFKLNFVRQGMGLTEITSAILITPKGDAKPGSTGKIVPLHAVKVVDPTTGKILGPNEPGELYFKGPMKMKGYYNNEEATKAIIDNDGWLRSGDIAYYDNDGHFYIVDRLKSLIKYKGYQVAPAEIEGILLQHPYIVDAGVTGIPDEAAGELPAAGVVVQTGKYLNEQIVQDYVASQVSTAKWLRGGVKFLDEIPKGSTGKIDRKVLRQMLEKHTNGHHHHHHHH |  |  |  |  |  | DSF Tm (° C.) [1]: 58 °C |
| ATG-2877: SEQ ID NO: 5; H244W (protein) MADKNILYGPEPFYPLEDGTAGEQMFDALSRYAAIPGCIALTNAHTKENVLYEEFLKLSCRLAESFKKYGLKQNDTIAVCSENSLQFFLPVIASLYLGIIVAPVNDKYIERELIHSLGIVKPRIVFCSKNTFQKVLNVKSKLKSIETIIILDLNEDLGGYQCLNNFISQNSDSNLDVKKFKPYSFNRDDQVASIMFSSGTTGLPKGVMLTHKNIVARFSIAKDPTFGNAINPTSAILTVIPFHWGFGMMTTLGYFTCGFRVVLMHTFEEKLFLQSLQDYKVESTLLVPTLMAFLAKSALVEKYDLSHLKEIASGGAPLSKEIGEMVKKRFKLNFVRQGYGLTETTSAVLITPKGDAKPGSTGKIVPLHAVKVVDPTTGKILGPNEPGELYFKGPMIMKGYYNNEEATKAIIDNDGWLRSGDIAYYDNDGHFYIVDRLKSLIKYKGYQVAPAEIEGILLQHPYIVDAGVTGIPDEAAGELPAAGVVVQTGKYLNEQIVQDYVASQVSTAKWLRGGVKFLDEIPKGSTGKIDRKVLRQMLEKHTNGHHHHHHHH |  |  |  |  |  | transition melting temperature by DSF ([1]; compared with Ppe variant (SEQ ID NO: 1), FIG. 29): does not alter the transition melting temperature |
| C7612E10: SEQ ID NO: 68; H244W+T344A+I396K+S193A+N228D+L305F+S306P+I109V+V348I (protein) MADKNILYGPEPFYPLEDGTAGEQMFDALSRYAAIPGCIALTNAHTKENVLYEEFLKLSCRLAESFKKYGLKQNDTIAVCSENSLQFFLPVIASLYLGIIVAPVNDKYVERELIHSLGIVKPRIVFCSKNTFQKVLNVKSKLKSIETIIILDLNEDLGGYQCLNNFISQNSDSNLDVKKFKPYSFNRDDQVASIMFSSGTTGLPKGVMLTHKNIVARFSIAKDPTFGNAINPTSAILTVIPFHHGFGMMTTLGYFTCGFRVVLMHTFEEKLFLQSLQDYKVESTLLVPTLMAFLAKSALVEKYDLSHLKEIASGGAPLSKEIGEMVKKRFKLNFVRQGYGLTETTSAVLITPKGDAKPGSTGKIVPLHAVKVVDPTTGKILGPNEPGELYFKGPMIMKGYYNNEEATKAIIDNDGWLRSGDIAYYDNDGHFYIVDRLKSLIKYKGYQVAPAEIEGILLQHPYIVDAGVTGIPDEAAGELPAAGVVVQTGKYLNEQIVQDYVASQVSTAKWLRGGVKFLDEIPKGSTGKIDRKVLRQMLEKHTNGHHHHHHHH | 2.28 | 2.27 | 2.22 | 2.02 | 63 |  |
| C2160C1: SEQ ID NO: 51; H244W+T344A+I396K+S193A+N228D+L305F+S306P+I109V+K121Q+F246Y+V261A (protein) MADKNILYGPEPFYPLEDGTAGEQMFDALSRYAAIPGCIALTNAHTKENVLYEEFLKLSCRLAESFKKYGLKQNDTIAVCSENSLQFFLPVIASLYLGIIVAPVNDKYVERELIHSLGIVQPRIVFCSKNTFQKVLNVKSKLKSIETIIILDLNEDLGGYQCLNNFISQNSDSNLDVKKFKPYSFNRDDQVAAIMFSSGTTGLPKGVMLTHKNIVARFSIAKDPTFGDAINPTSAILTVIPFHWGYGMMTTLGYFTCGFRAVLMHTFEEKLFLQSLQDYKVESTLLVPTLMAFLAKSALVEKYDFPHLKEIASGGAPLSKEIGEMVKKRFKLNFVRQGYGLTEATSAVLITPKGDAKPGSTGKIVPLHAVKVVDPTTGKILGPNEPGELYFKGPMKMKGYYNNEEATKAIIDNDGWLRSGDIAYYDNDGHFYIVDRLKSLIKYKGYQVAPAEIEGILLQHPYIVDAGVTGIPDEAAGELPAAGVVVQTGKYLNEQIVQDYVASQVSTAKWLRGGVKFLDEIPKGSTGKIDRKVLRQMLEKHTNGHHHHHHHH |  |  |  |  |  | Luminescence (RLU) BrightGlo ([4]; BrightGlo buffer, 25° C., 3 min): 4459170 RLU; Normalized Luminescence BrightGlo ([4]; BrightGlo buffer, normalized to ATG-3707): 1.15; Luminescence (RLU) CellTiterGlo ([4]; CellTiterGlo buffer, 25° C., 3 min): 450262 RLU; Normalized Luminescence CellTiterGlo ([4]; CellTiterGlo buffer, normalized to ATG-3707): 0.70; Luminescence (RLU) Detection Reagent ([4]; Detection Reagent buffer, 25° C., 3 min): 5002710 RLU; Normalized Luminescence Detection Reagent ([4]; Detection Reagent buffer, normalized to ATG-3707): 0.97 |
| C7584F2: SEQ ID NO: 73; H244W+T344A+I396K+S193A+N228D+L305F+S306P+I109V+A344I (protein) MADKNILYGPEPFYPLEDGTAGEQMFDALSRYAAIPGCIALTNAHTKENVLYEEFLKLSCRLAESFKKYGLKQNDTIAVCSENSLQFFLPVIASLYLGIIVAPVNDKYIERELIHSLGIVKPRIVFCSKNTFQKVLNVKSKLKSIETIIILDLNEDLGGYQCLNNFISQNSDSNLDVKKFKPYSFNRDDQVASIMFSSGTTGLPKGVMLTHKNIVARFSIAKDPTFGNAINPTSAILTVIPFHHGFGMMTTLGYFTCGFRVVLMHTFEEKLFLQSLQDYKVESTLLVPTLMAFLAKSALVEKYDLSHLKEIASGGAPLSKEIGEMVKKRFKLNFVRQGYGLTEATSAVLITPKGDAKPGSTGKIVPLHAVKVVDPTTGKILGPNEPGELYFKGPMIMKGYYNNEEATKAIIDNDGWLRSGDIAYYDNDGHFYIVDRLKSLIKYKGYQVAPAEIEGILLQHPYIVDAGVTGIPDEAAGELPAAGVVVQTGKYLNEQIVQDYVASQVSTAKWLRGGVKFLDEIPKGSTGKIDRKVLRQMLEKHTNGHHHHHHHH | 2.35 | 2.15 | 2.78 | 2.68 | 65 |  |
| C7579E3: SEQ ID NO: 71; H244W+T344A+I396K+S193A+N228D+L305F+S306P+I109V+Y339M (protein) MADKNILYGPEPFYPLEDGTAGEQMFDALSRYAAIPGCIALTNAHTKENVLYEEFLKLSCRLAESFKKYGLKQNDTIAVCSENSLQFFLPVIASLYLGIIVAPVNDKYIERELIHSLGIVKPRIVFCSKNTFQKVLNVKSKLKSIETIIILDLNEDLGGYQCLNNFISQNSDSNLDVKKFKPYSFNRDDQVASIMFSSGTTGLPKGVMLTHKNIVARFSIAKDPTFGNAINPTSAILTVIPFHHGFGMMTTLGYFTCGFRVVLMHTFEEKLFLQSLQDYKVESTLLVPTLMAFLAKSALVEKYDLPHLKEIASGGAPLSKEIGEMVKKRFKLNFVRQGYGLTETTSAVLITPKGDAKPGSTGKIVPLHAVKVVDPTTGKILGPNEPGELYFKGPMIMKGYYNNEEATKAIIDNDGWLRSGDIAYYDNDGHFYIVDRLKSLIKYKGYQVAPAEIEGILLQHPYIVDAGVTGIPDEAAGELPAAGVVVQTGKYLNEQIVQDYVASQVSTAKWLRGGVKFLDEIPKGSTGKIDRKVLRQMLEKHTNGHHHHHHHH | 1.19 | 1.96 | 3.26 | 3.63 | 55 |  |
